These results are taken from patent US20250114463A1, “LIVER-TARGETED DRUG AND USE THEREOF” (HANMI PHARM. CO., LTD., priority 2021, published 2025).

Positions count from the first letter of the chain named. Bridges are numbered along the chain shown (N, C = ends). Where no end group is shown, it is not given here. [ ]: non-standard residue; d: D form. Aib = CC(C)(N)C(=O)O

First the molecules themselves.
T1: human GIP receptor (human, UniProt P48546 22-466)
T1 sequence (looked up): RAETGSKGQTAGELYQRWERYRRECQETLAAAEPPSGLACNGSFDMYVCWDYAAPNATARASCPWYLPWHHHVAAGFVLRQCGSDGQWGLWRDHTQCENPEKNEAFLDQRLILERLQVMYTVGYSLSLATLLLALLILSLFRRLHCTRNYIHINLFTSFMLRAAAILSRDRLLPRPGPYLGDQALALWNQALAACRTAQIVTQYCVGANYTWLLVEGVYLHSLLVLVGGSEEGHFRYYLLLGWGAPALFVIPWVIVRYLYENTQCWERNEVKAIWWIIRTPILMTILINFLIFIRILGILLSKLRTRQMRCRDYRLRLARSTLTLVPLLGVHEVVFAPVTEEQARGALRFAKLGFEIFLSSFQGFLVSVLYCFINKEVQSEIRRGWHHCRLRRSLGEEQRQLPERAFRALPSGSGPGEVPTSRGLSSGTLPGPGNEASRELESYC

B1: triple agonist of SEQ ID NO: 4 (peptide)
peptide: HXQGTFTSDVSSYLLGQQQKEFIAWLVKGC
HELM: PEPTIDE1{H.[Aib].Q.G.T.F.T.S.D.V.S.S.Y.L.L.G.Q.Q.Q.K.E.F.I.A.W.L.V.K.G.C.[am]}$$$$V2.0; N-terminus assumed
SMILES: CC[C@H](C)[C@H](NC(=O)[C@H](Cc1ccccc1)NC(=O)[C@H](CCC(=O)O)NC(=O)[C@H](CCCCN)NC(=O)[C@H](CCC(N)=O)NC(=O)[C@H](CCC(N)=O)NC(=O)[C@H](CCC(N)=O)NC(=O)CNC(=O)[C@H](CC(C)C)NC(=O)[C@H](CC(C)C)NC(=O)[C@H](Cc1ccc(O)cc1)NC(=O)[C@H](CO)NC(=O)[C@H](CO)NC(=O)[C@@H](NC(=O)[C@H](CC(=O)O)NC(=O)[C@H](CO)NC(=O)[C@@H](NC(=O)[C@H](Cc1ccccc1)NC(=O)[C@@H](NC(=O)CNC(=O)[C@H](CCC(N)=O)NC(=O)C(C)(C)NC(=O)[C@@H](N)Cc1c[nH]cn1)[C@@H](C)O)[C@@H](C)O)C(C)C)C(=O)N[C@@H](C)C(=O)N[C@@H](Cc1c[nH]c2ccccc12)C(=O)N[C@@H](CC(C)C)C(=O)N[C@H](C(=O)N[C@@H](CCCCN)C(=O)NCC(=O)N[C@@H](CS)C(N)=O)C(C)C
B2: triple agonist of SEQ ID NO: 38 (peptide)
peptide: XXQGTFTSDKSSYLDERAAQDFVQWLLDGGPSSGAPPPSS
HELM: PEPTIDE1{[O=C(Cc1c[nH]cn1)[*:2]].[Aib].Q.G.T.F.T.S.D.K.S.S.Y.L.D.E.R.A.A.Q.D.F.V.Q.W.L.L.D.G.G.P.S.S.G.A.P.P.P.S.S.[am]}$$$$V2.0
SMILES: CC(C)C[C@H](NC(=O)[C@H](CC(C)C)NC(=O)[C@H](Cc1c[nH]c2ccccc12)NC(=O)[C@H](CCC(N)=O)NC(=O)[C@@H](NC(=O)[C@H](Cc1ccccc1)NC(=O)[C@H](CC(=O)O)NC(=O)[C@H](CCC(N)=O)NC(=O)[C@H](C)NC(=O)[C@H](C)NC(=O)[C@H](CCCNC(=N)N)NC(=O)[C@H](CCC(=O)O)NC(=O)[C@H](CC(=O)O)NC(=O)[C@H](CC(C)C)NC(=O)[C@H](Cc1ccc(O)cc1)NC(=O)[C@H](CO)NC(=O)[C@H](CO)NC(=O)[C@H](CCCCN)NC(=O)[C@H](CC(=O)O)NC(=O)[C@H](CO)NC(=O)[C@@H](NC(=O)[C@H](Cc1ccccc1)NC(=O)[C@@H](NC(=O)CNC(=O)[C@H](CCC(N)=O)NC(=O)C(C)(C)NC(=O)Cc1c[nH]cn1)[C@@H](C)O)[C@@H](C)O)C(C)C)C(=O)N[C@@H](CC(=O)O)C(=O)NCC(=O)NCC(=O)N1CCC[C@H]1C(=O)N[C@@H](CO)C(=O)N[C@@H](CO)C(=O)NCC(=O)N[C@@H](C)C(=O)N1CCC[C@H]1C(=O)N1CCC[C@H]1C(=O)N1CCC[C@H]1C(=O)N[C@@H](CO)C(=O)N[C@@H](CO)C(N)=O
B3: triple agonist of SEQ ID NO: 1 (peptide)
peptide: B1 peptide with L15D, Q18A, Q19A
HELM: PEPTIDE1{H.[Aib].Q.G.T.F.T.S.D.V.S.S.Y.L.D.G.Q.A.A.K.E.F.I.A.W.L.V.K.G.C.[am]}$$$$V2.0; N-terminus assumed
SMILES: CC[C@H](C)[C@H](NC(=O)[C@H](Cc1ccccc1)NC(=O)[C@H](CCC(=O)O)NC(=O)[C@H](CCCCN)NC(=O)[C@H](C)NC(=O)[C@H](C)NC(=O)[C@H](CCC(N)=O)NC(=O)CNC(=O)[C@H](CC(=O)O)NC(=O)[C@H](CC(C)C)NC(=O)[C@H](Cc1ccc(O)cc1)NC(=O)[C@H](CO)NC(=O)[C@H](CO)NC(=O)[C@@H](NC(=O)[C@H](CC(=O)O)NC(=O)[C@H](CO)NC(=O)[C@@H](NC(=O)[C@H](Cc1ccccc1)NC(=O)[C@@H](NC(=O)CNC(=O)[C@H](CCC(N)=O)NC(=O)C(C)(C)NC(=O)[C@@H](N)Cc1c[nH]cn1)[C@@H](C)O)[C@@H](C)O)C(C)C)C(=O)N[C@@H](C)C(=O)N[C@@H](Cc1c[nH]c2ccccc12)C(=O)N[C@@H](CC(C)C)C(=O)N[C@H](C(=O)N[C@@H](CCCCN)C(=O)NCC(=O)N[C@@H](CS)C(N)=O)C(C)C
B4: triple agonist of SEQ ID NO: 40 (peptide)
peptide: HXQGTFTSDKSKYLDERACQDFVQWLLDGGPSSGAPPPS
HELM: PEPTIDE1{H.[Aib].Q.G.T.F.T.S.D.K.S.K.Y.L.D.E.R.A.C.Q.D.F.V.Q.W.L.L.D.G.G.P.S.S.G.A.P.P.P.S.[am]}$$$$V2.0; N-terminus assumed
SMILES: CC(C)C[C@H](NC(=O)[C@H](CC(C)C)NC(=O)[C@H](Cc1c[nH]c2ccccc12)NC(=O)[C@H](CCC(N)=O)NC(=O)[C@@H](NC(=O)[C@H](Cc1ccccc1)NC(=O)[C@H](CC(=O)O)NC(=O)[C@H](CCC(N)=O)NC(=O)[C@H](CS)NC(=O)[C@H](C)NC(=O)[C@H](CCCNC(=N)N)NC(=O)[C@H](CCC(=O)O)NC(=O)[C@H](CC(=O)O)NC(=O)[C@H](CC(C)C)NC(=O)[C@H](Cc1ccc(O)cc1)NC(=O)[C@H](CCCCN)NC(=O)[C@H](CO)NC(=O)[C@H](CCCCN)NC(=O)[C@H](CC(=O)O)NC(=O)[C@H](CO)NC(=O)[C@@H](NC(=O)[C@H](Cc1ccccc1)NC(=O)[C@@H](NC(=O)CNC(=O)[C@H](CCC(N)=O)NC(=O)C(C)(C)NC(=O)[C@@H](N)Cc1c[nH]cn1)[C@@H](C)O)[C@@H](C)O)C(C)C)C(=O)N[C@@H](CC(=O)O)C(=O)NCC(=O)NCC(=O)N1CCC[C@H]1C(=O)N[C@@H](CO)C(=O)N[C@@H](CO)C(=O)NCC(=O)N[C@@H](C)C(=O)N1CCC[C@H]1C(=O)N1CCC[C@H]1C(=O)N1CCC[C@H]1C(=O)N[C@@H](CO)C(N)=O
B5: triple agonist of SEQ ID NO: 39 (peptide)
peptide: HXQGTFTSDYSKYLDGQHAQCFVAWLLAGGGPSSGAPPPS
HELM: PEPTIDE1{H.[Aib].Q.G.T.F.T.S.D.Y.S.K.Y.L.D.G.Q.H.A.Q.C.F.V.A.W.L.L.A.G.G.G.P.S.S.G.A.P.P.P.S.[am]}$$$$V2.0; N-terminus assumed
SMILES: CC(C)C[C@H](NC(=O)[C@H](CC(C)C)NC(=O)[C@H](Cc1c[nH]c2ccccc12)NC(=O)[C@H](C)NC(=O)[C@@H](NC(=O)[C@H](Cc1ccccc1)NC(=O)[C@H](CS)NC(=O)[C@H](CCC(N)=O)NC(=O)[C@H](C)NC(=O)[C@H](Cc1c[nH]cn1)NC(=O)[C@H](CCC(N)=O)NC(=O)CNC(=O)[C@H](CC(=O)O)NC(=O)[C@H](CC(C)C)NC(=O)[C@H](Cc1ccc(O)cc1)NC(=O)[C@H](CCCCN)NC(=O)[C@H](CO)NC(=O)[C@H](Cc1ccc(O)cc1)NC(=O)[C@H](CC(=O)O)NC(=O)[C@H](CO)NC(=O)[C@@H](NC(=O)[C@H](Cc1ccccc1)NC(=O)[C@@H](NC(=O)CNC(=O)[C@H](CCC(N)=O)NC(=O)C(C)(C)NC(=O)[C@@H](N)Cc1c[nH]cn1)[C@@H](C)O)[C@@H](C)O)C(C)C)C(=O)N[C@@H](C)C(=O)NCC(=O)NCC(=O)NCC(=O)N1CCC[C@H]1C(=O)N[C@@H](CO)C(=O)N[C@@H](CO)C(=O)NCC(=O)N[C@@H](C)C(=O)N1CCC[C@H]1C(=O)N1CCC[C@H]1C(=O)N1CCC[C@H]1C(=O)N[C@@H](CO)C(N)=O

Chain of human GCG receptor (P47871 26-477): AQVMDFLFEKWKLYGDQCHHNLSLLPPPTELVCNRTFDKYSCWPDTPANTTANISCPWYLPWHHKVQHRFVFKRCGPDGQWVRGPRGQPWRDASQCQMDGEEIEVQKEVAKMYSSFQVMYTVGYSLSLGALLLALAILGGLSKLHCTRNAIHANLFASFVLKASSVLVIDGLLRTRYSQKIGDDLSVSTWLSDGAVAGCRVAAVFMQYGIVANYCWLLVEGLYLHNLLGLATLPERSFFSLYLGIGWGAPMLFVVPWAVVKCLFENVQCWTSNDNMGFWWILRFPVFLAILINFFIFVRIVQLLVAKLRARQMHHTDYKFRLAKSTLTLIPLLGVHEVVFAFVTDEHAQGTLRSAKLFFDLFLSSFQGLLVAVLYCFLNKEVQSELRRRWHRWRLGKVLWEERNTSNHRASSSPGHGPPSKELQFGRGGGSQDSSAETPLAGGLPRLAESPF

The first experiment addresses human GLP-1 receptor (human, UniProt P43220 24-463). The experiment in a line: cell-based or functional assay.
As for B1, the “in vitro Activity Compared to Native Peptide (%), vs GLP-1” value was found to be 8.5%.
In the case of H[Aib]QGTFTSDYSIAMDEIHQKDFVNWLLNTKC (bridge 16-20; not fully specified (C-terminus)) [triple agonist of SEQ ID NO: 35], the “in vitro Activity Compared to Native Peptide (%), vs GLP-1” value worked out at 7.5%.
On the same count and under the same terms, the same measure for H[Aib]QGTFTSDYSKYLCEKRQKEFVQWLLNGGPSSGAPPPSG (bridge 16-20; not fully specified (C-terminus)) [triple agonist of SEQ ID NO: 36]: 37.4%; for B2: 2.3%; for B3: 3.2%.
Turning to H[Aib]QGTFTSDYSKYLDEKRQKEFVNWLLAQKC (bridge 16-20; not fully specified (C-terminus)) [triple agonist of SEQ ID NO: 34], the “in vitro Activity Compared to Native Peptide (%), vs GLP-1” value came to 19.1%.
B4: the “in vitro Activity Compared to Native Peptide (%), vs GLP-1” value is 75.2%.
Still for that read-out and setting: the same measure for B5: 13.9%; for H[Aib]QGTFTSDYSKYLDECRQKEFVQWLLNGGPSSGAPPPSG (bridge 16-20; not fully specified (C-terminus)) [triple agonist of SEQ ID NO: 37]: 236%.

Another experiment concerns the target human GCG receptor (human, UniProt P47871 26-477). The experiment in a line: cell-based or functional assay.
B1: the “in vitro Activity Compared to Native Peptide (%), vs Glucagon” value is under 0.1%.
On the same count and under the same terms, the same measure for H[Aib]QGTFTSDYSIAMDEIHQKDFVNWLLNTKC (bridge 16-20; not fully specified (C-terminus)) [triple agonist of SEQ ID NO: 35]: under 0.1%; for H[Aib]QGTFTSDYSKYLCEKRQKEFVQWLLNGGPSSGAPPPSG (bridge 16-20; not fully specified (C-terminus)) [triple agonist of SEQ ID NO: 36]: 0.39%.
Regarding B3, the “in vitro Activity Compared to Native Peptide (%), vs Glucagon” value is under 0.1%.
As to H[Aib]QGTFTSDYSKYLDEKRQKEFVNWLLAQKC (bridge 16-20; not fully specified (C-terminus)) [triple agonist of SEQ ID NO: 34], the “in vitro Activity Compared to Native Peptide (%), vs Glucagon” value was determined as 0.92%.
In the case of B4, the “in vitro Activity Compared to Native Peptide (%), vs Glucagon” value is under 0.1%.
Still for that read-out and setting: the same measure for B5: 0.53%; for H[Aib]QGTFTSDYSKYLDECRQKEFVQWLLNGGPSSGAPPPSG (bridge 16-20; not fully specified (C-terminus)) [triple agonist of SEQ ID NO: 37]: 6.21%.

The target in the next experiment is T1, human GIP receptor. The experiment in a line: cell-based or functional assay.
Consider B1, for which the “in vitro Activity Compared to Native Peptide (%), vs GIP” value was under 0.1%.
Same read-out and setting: the same measure for H[Aib]QGTFTSDYSIAMDEIHQKDFVNWLLNTKC (bridge 16-20; not fully specified (C-terminus)) [triple agonist of SEQ ID NO: 35]: 1.3%.
H[Aib]QGTFTSDYSKYLCEKRQKEFVQWLLNGGPSSGAPPPSG (bridge 16-20; not fully specified (C-terminus)) [triple agonist of SEQ ID NO: 36]: the “in vitro Activity Compared to Native Peptide (%), vs GIP” value came out at 0.2%.
Consider B3, for which the “in vitro Activity Compared to Native Peptide (%), vs GIP” value was under 0.1%.
Same read-out and setting: the same measure for H[Aib]QGTFTSDYSKYLDEKRQKEFVNWLLAQKC (bridge 16-20; not fully specified (C-terminus)) [triple agonist of SEQ ID NO: 34]: 0.6%; for B4: under 0.1%.
Regarding B5, the “in vitro Activity Compared to Native Peptide (%), vs GIP” value is under 0.1%.
Take H[Aib]QGTFTSDYSKYLDECRQKEFVQWLLNGGPSSGAPPPSG (bridge 16-20; not fully specified (C-terminus)) [triple agonist of SEQ ID NO: 37]: the “in vitro Activity Compared to Native Peptide (%), vs GIP” value is 2.2%.
